The chains are these.
B1: HDV Ribozyme (parent)
chain: GGCCGGCAUGGUCCCAGCCUCCUCGCUGGCGCCGGCUGGGCAACAUUCCGAGGGGACCGUCCCCUCGGUAAUGGCGAAUGGGACCCA

This series covers variants of B1. As to the kind of experiment: self-cleavage, relative activity (ratio to wild type); higher = more cleavage; co-transcriptional.
For GGCCGGCAUGGUCCCAGCCUCCUCGCUGGCGCCGGCUAGGCAACAUUCCGAGGGGAGCGUCCCCUCGGUAAUGGCGAAUGGGACCCA [G38A C57G], the self-cleavage turned out to be 0.224. Take GGCCGGCAAGGUCCCAGCCUCCUCGCUGGCGCCGGCUGGGCAACAUUCCGAGGGGAUCGUCCCCUCGGUAAUGGCGAAUGGGACCCA [U9A C57U]: the self-cleavage was found to be 1.19.

As for GGCCGGCAUGGUCACAGCCUCCUCGCUGGCGCCGCCUGGGCAACAUUCCGAGGGGACCGUCCCCUCGGUAAUGGCGAAUGGGACCCA [C14A G35C], the self-cleavage worked out at 0.0536. In the case of GGCCGGCAUGGUCCCAGCCUCCUCGCUGGCGCCAGCUGGGCAAAAUUCCGAGGGGACCGUCCCCUCGGUAAUGGCGAAUGGGACCCA [G34A C44A] it was 0.089; in that of GUCCGGCACGGUCCCAGCCUCCUCGCUGGCGCCGGCUGGGCAACAUUCCGAGGGGACCGUCCCCUCGGUAAUGGCGAAUGGGACCCA [G2U U9C], 0.104; in that of GGCCGGCAUGGUCCCAGCCACCUCGCUGGCGCCGGCUGGGCAACAUUCCGAGGGGACCUUCCCCUCGGUAAUGGCGAAUGGGACCCA [U20A G59U], 0.222.

With GGCCGGCAUGGUCCUAGCCUCCUCGCUCGCGCCGGCUGGGCAACAUUCCGAGGGGACCGUCCCCUCGGUAAUGGCGAAUGGGACCCA [C15U G28C], the self-cleavage came out at 0.0405.

For GGCCGGCAUGGUCCCAGCCUCCUCGCUGGUGCCGGCUGGGCAACAUUCCGAGGGGACCGUCCCCUCGGUAAUGACGAAUGGGACCCA [C30U G74A], the self-cleavage was found to be 0.0329. In the case of GGCCGGCAUGGUCCCAGCCUCCUCGCUGGCGCCGGCUGGGCAACAUUCCGGGGGGACCGUCCCCUCGGUAAUGGGGAAUGGGACCCA [A51G C75G] it was 0.128; in that of GGCCGGCAUGGUCCCAGCCUCCUCGCUGGCGCCGGCUGGGCAACAUUCCGAGGGGACAGUCCCCUCGGUAAUGGCGGAUGGGACCCA [C58A A77G], 1.09. The figure for GACCGGCAUGGUCCCAGCCUCCUCGCUGGCGCCGGCUGGACAACAUUCCGAGGGGACCGUCCCCUCGGUAAUGGCGAAUGGGACCCA [G2A G40A] is 0.136; for GGCCGGCAUGGUCCCAGCCUCCUCGCUGGCGCCGGCUGGGCAACAUUCCGCGGGGACCGUCCCCUCGGUAAUGGCGAAUGGGACACA [A51C C85A] it is 0.755; for CGCCGGCAUGGUCCCAGCCUCCUCGCUGGCGCCGGCUGCGCAACAUUCCGAGGGGACCGUCCCCUCGGUAAUGGCGAAUGGGACCCA [G1C G39C] it is 0.0519. The figure for GGCCGGAACGGUCCCAGCCUCCUCGCUGGCGCCGGCUGGGCAACAUUCCGAGGGGACCGUCCCCUCGGUAAUGGCGAAUGGGACCCA [C7A U9C] is 0.604; for GGCCUGCAUGGUCCCAGCCUCCUCGCUGGCGCCGGCUGGGCAACAUUCCGAGGGGACCGUCCCCUCAGUAAUGGCGAAUGGGACCCA [G5U G67A] it is 0.32. GGCCGGCAUGGUGCCAGCCUCCUCGCUGGCGCCCGCUGGGCAACAUUCCGAGGGGACCGUCCCCUCGGUAAUGGCGAAUGGGACCCA [C13G G34C]: the self-cleavage was determined as 0.178. The figure for GGCCGGCAUGGUCCUAGCCUCCUCGCUGGCGCCGGCUGGACAACAUUCCGAGGGGACCGUCCCCUCGGUAAUGGCGAAUGGGACCCA [C15U G40A] is 0.972; for GGCUGGCAUGGUCCCAGCCUCCUCGCUGGCGCCGGCUGGGCAACAUCCCGAGGGGACCGUCCCCUCGGUAAUGGCGAAUGGGACCCA [C4U U47C] it is 0.554; for GGCCGGCAUGGUCCCAGCCUCCUCGCUGGCGCCGGCUGGGCAAUAUUCCGAGGGGACCGUCCCAUCGGUAAUGGCGAAUGGGACCCA [C44U C64A] it is 0.408. In the case of GGCCGGCAUGGUCCCAGCCUCCUCGCUGGCGCCGGCUGGGCAACAUUCCGAGGGGACCGUCCCCUCGGUAAUGGCGAUUGGGACCCG [A78U A87G] it was 0.226; in that of GGGCGGCAUGGUCCCAGCCUCCUCGCUGGCGCCGGCUGGCCAACAUUCCGAGGGGACCGUCCCCUCGGUAAUGGCGAAUGGGACCCA [C3G G40C], 0.339; in that of GGCCGGCAUGAACCCAGCCUCCUCGCUGGCGCCGGCUGGGCAACAUUCCGAGGGGACCGUCCCCUCGGUAAUGGCGAAUGGGACCCA [G11A U12A], 0.0831. Regarding GGCCGGCAUGGUCCCAGCCUCCUCGCUGGCGCCGGCUGGGCACCAUUCCGAGGGGACCUUCCCCUCGGUAAUGGCGAAUGGGACCCA [A43C G59U], the self-cleavage is 0.639.

As to GCCCGGCAUGGUCCCAGCCUCCUCGCUGGCGCCGGCUGGGCAACAUUCCGAGGGGACCGUCCCCUCGCUAAUGGCGAAUGGGACCCA [G2C G68C], the self-cleavage came out at 0.0244. The figure for GGCCGGCAUGGUCCCAGCCUCCUCGCUGGCGCCGGCUGGGCAACAUUCCGAGGGGACCGUCCCCUGGGUAAUGGCGAGUGGGACCCA [C66G A78G] is 0.875. The figure for GGCCGGCAUGGUCCGAGCCUCCUCGCUGGCGCCGGCUGGGCAACAUUCGGAGGGGACCGUCCCCUCGGUAAUGGCGAAUGGGACCCA [C15G C49G] is 0.499; for GGCCGGCAUGGUCCCAGCCUCCUCGCUGGGGCCGGCUGGGCAACAUUCCGAGGGGACCGUCCCCUCGGAAAUGGCGAAUGGGACCCA [C30G U69A] it is 0.148; for GGCCGGCAUGGUCCCAGCCUCCUCGCUGGCGCCGGCUGGGCAACAUUCCGAGGGGACCGUCCCCUCGAUAAUGGCGAAUCGGACCCA [G68A G80C] it is 0.286.

Take GGCCGGCAUAGUCCCAGCCUCCUCGCUGGCGACGGCUGGGCAACAUUCCGAGGGGACCGUCCCCUCGGUAAUGGCGAAUGGGACCCA [G10A C32A]: the self-cleavage was 0.153. In the case of GGGCGGCAUGGUCCCAGUCUCCUCGCUGGCGCCGGCUGGGCAACAUUCCGAGGGGACCGUCCCCUCGGUAAUGGCGAAUGGGACCCA [C3G C18U] it was 0.04; in that of GGCCGGCAUGGUCCCAGCCUCCUCGCUGUCGCCGGCUGAGCAACAUUCCGAGGGGACCGUCCCCUCGGUAAUGGCGAAUGGGACCCA [G29U G39A], 0; in that of GGCCGGCAUGGUCCCAGCCUCCUCGCUGGUGCCGGCUGGGCAACAUUCCGAGGGGACCGUCCCCUCGGUAAUGGCGAAUGGGGCCCA [C30U A83G], 0.302.
